# Measured values reported in patent US20210347913A1 (CRISPR THERAPEUTICS, published 2021).
# T1: recombinant human PTK7.Fc (R and D Systems, catalog #9799-TK) (human, UniProt Q13308 31-704, limits assumed)
# T1 construct: Bought reagent; also called soluble recombinant human PTK7.Fc; soluble antigen PTK7; not shown: Fc part of the bought fusion (detected with anti-human Fc)
# T1 sequence (looked up): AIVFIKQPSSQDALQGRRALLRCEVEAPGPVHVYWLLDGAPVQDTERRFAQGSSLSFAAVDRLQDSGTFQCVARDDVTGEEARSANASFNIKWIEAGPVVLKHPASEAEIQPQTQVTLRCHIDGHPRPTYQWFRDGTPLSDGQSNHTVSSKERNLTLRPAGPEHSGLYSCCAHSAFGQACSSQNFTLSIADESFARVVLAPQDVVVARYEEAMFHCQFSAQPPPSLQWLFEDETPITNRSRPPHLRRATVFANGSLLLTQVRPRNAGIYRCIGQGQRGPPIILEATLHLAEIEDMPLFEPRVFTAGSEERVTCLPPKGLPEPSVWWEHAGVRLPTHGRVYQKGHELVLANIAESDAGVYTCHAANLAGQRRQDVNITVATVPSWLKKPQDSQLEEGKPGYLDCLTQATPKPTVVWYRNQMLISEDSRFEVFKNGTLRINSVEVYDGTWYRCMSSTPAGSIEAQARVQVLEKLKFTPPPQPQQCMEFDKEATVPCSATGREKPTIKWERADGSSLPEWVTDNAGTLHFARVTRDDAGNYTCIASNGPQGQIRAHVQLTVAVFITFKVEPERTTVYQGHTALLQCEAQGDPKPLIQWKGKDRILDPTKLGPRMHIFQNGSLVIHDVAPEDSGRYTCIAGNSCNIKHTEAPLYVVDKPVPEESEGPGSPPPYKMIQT
# T2: PTK7 on PTK7 positive cell line SaOS-2 (osteosarcoma) (UniProt Q13308 31-1070, limits assumed)
# T2 sequence (looked up): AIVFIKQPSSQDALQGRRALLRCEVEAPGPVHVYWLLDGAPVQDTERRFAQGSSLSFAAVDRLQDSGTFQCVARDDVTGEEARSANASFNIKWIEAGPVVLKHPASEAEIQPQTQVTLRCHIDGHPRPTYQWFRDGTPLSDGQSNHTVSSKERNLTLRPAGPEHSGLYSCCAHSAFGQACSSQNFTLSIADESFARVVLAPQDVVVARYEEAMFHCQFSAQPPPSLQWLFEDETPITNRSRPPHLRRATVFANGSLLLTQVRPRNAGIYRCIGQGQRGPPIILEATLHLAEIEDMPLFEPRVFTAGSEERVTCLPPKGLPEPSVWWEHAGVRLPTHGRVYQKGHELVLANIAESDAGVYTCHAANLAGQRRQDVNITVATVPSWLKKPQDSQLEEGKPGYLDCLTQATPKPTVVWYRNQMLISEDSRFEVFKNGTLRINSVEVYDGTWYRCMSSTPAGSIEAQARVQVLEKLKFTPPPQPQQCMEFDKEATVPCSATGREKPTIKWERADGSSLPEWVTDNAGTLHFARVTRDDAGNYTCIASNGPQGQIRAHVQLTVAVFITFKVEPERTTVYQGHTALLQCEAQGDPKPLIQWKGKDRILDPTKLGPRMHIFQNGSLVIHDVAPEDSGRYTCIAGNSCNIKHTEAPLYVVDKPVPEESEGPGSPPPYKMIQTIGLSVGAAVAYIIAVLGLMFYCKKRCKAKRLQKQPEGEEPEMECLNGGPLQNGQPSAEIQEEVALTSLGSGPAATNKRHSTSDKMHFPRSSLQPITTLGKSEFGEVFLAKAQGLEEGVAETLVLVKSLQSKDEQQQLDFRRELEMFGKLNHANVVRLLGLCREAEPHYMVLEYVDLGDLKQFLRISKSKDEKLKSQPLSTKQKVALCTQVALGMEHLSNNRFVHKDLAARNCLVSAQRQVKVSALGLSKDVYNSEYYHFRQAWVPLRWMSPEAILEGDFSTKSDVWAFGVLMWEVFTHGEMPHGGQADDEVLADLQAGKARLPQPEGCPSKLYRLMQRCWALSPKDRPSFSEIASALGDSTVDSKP
# Key:
# [1] = biological target: T1, recombinant human PTK7.Fc (R and D …); assay: flow cytometry, percent of CAR T cells positive for 10 ug/mL PTK7.Fc
# Procedure: In addition to detecting surface CAR expression, the ability of the CAR T cells and masked CAR T cells to detect target antigen was also determined. Live CAR T cells were gated by their forward scatter (FSC) and side scatter (SSC) profiles, and with DAPI dye (Invitrogen, catalog #: D3571). The cells were then stained with 10 μg/mL recombinant human PTK7.Fc (R and D Systems, catalog #9799-TK Lot DHMCO219041) as described above in Example 3, and with mouse anti-human.Fc conjugated to APC (Biolegend cat #409305) as secondary antibody for detection (FIG. 3).
# [2] = biological target: T2, PTK7 on PTK7 positive cell line SaOS-2 …; assay: cell-based or functional assay
# [3] = biological target: T2, PTK7 on PTK7 positive cell line SaOS-2 …; assay: cell-based or functional assay; remark: listed apart in the source
Binder,% Antigen detection [1],% Cell killing at E:T = 1:0.5 [2],% Cell killing at E:T = 1:1 [2],IFNγ (pg/mL) at E:T = 1:0.5 [3],IFNγ (pg/mL) at E:T = 1:1 [3]
"CTX181.M6 (other, Masked chimeric antigen receptor on the surface of TRAC-/B2M- human T cells; entry without signal peptide) QGVCTYPPAHRTRFCGSSGGSGGSGGSGGGPLGLAGGSSGQVQLVESGGGVVQPGRSLRLSCAASGFTFSSYGMHWVRQAPGKGLEWVAVIWDDGSNKYYVDSVKGRFTISRDNSKNTLYLQMNSLRAEDTAVYYCARDDYYGSGSFNSYYGTDVWGQGTTVTVSSGGGGSGGGGSGGGGSEIVLTQSPATLSLSPGERATLSCRASQSVSIYLAWYQQKPGQAPRLLIYDASNRATGIPARFSGSGSGTDFTLTISSLEPEDFAVYYCQQRSNWPPFTFGPGTKVDIKSAAAFVPVFLPAKPTTTPAPRPPTPAPTIASQPLSLRPEACRPAAGGAVHTRGLDFACDIYIWAPLAGTCGVLLLSLVITLYCNHRNRSKRSRLLHSDYMNMTPRRPGPTRKHYQPYAPPRDFAAYRSRVKFSRSADAPAYQQGQNQLYNELNLGRREEYDVLDKRRGRDPEMGGKPRRKNPQEGLYNELQKDKMAEAYSEIGMKGERRRGKGHDGLYQGLSTATKDTYDALHMQALPPR",14.7%,42.4%,13.9%,735 pg/mL,715 pg/mL
"CTX181.M7 (other, Masked chimeric antigen receptor on the surface of TRAC-/B2M- human T cells; entry without signal peptide) QGCTMPYHIHSIGLCGSSGGSGGSGGSGGGPLGLAGGSSGQVQLVESGGGVVQPGRSLRLSCAASGFTFSSYGMHWVRQAPGKGLEWVAVIWDDGSNKYYVDSVKGRFTISRDNSKNTLYLQMNSLRAEDTAVYYCARDDYYGSGSFNSYYGTDVWGQGTTVTVSSGGGGSGGGGSGGGGSEIVLTQSPATLSLSPGERATLSCRASQSVSIYLAWYQQKPGQAPRLLIYDASNRATGIPARFSGSGSGTDFTLTISSLEPEDFAVYYCQQRSNWPPFTFGPGTKVDIKSAAAFVPVFLPAKPTTTPAPRPPTPAPTIASQPLSLRPEACRPAAGGAVHTRGLDFACDIYIWAPLAGTCGVLLLSLVITLYCNHRNRSKRSRLLHSDYMNMTPRRPGPTRKHYQPYAPPRDFAAYRSRVKFSRSADAPAYQQGQNQLYNELNLGRREEYDVLDKRRGRDPEMGGKPRRKNPQEGLYNELQKDKMAEAYSEIGMKGERRRGKGHDGLYQGLSTATKDTYDALHMQALPPR",28%,37.5%,10.2%,885 pg/mL,830 pg/mL
"CTX181.M8 (other, Masked chimeric antigen receptor on the surface of TRAC-/B2M- human T cells; entry without signal peptide) QGWCTIPSSMSIRLCGSSGGSGGSGGSGGGPLGLAGGSSGQVQLVESGGGVVQPGRSLRLSCAASGFTFSSYGMHWVRQAPGKGLEWVAVIWDDGSNKYYVDSVKGRFTISRDNSKNTLYLQMNSLRAEDTAVYYCARDDYYGSGSFNSYYGTDVWGQGTTVTVSSGGGGSGGGGSGGGGSEIVLTQSPATLSLSPGERATLSCRASQSVSIYLAWYQQKPGQAPRLLIYDASNRATGIPARFSGSGSGTDFTLTISSLEPEDFAVYYCQQRSNWPPFTFGPGTKVDIKSAAAFVPVFLPAKPTTTPAPRPPTPAPTIASQPLSLRPEACRPAAGGAVHTRGLDFACDIYIWAPLAGTCGVLLLSLVITLYCNHRNRSKRSRLLHSDYMNMTPRRPGPTRKHYQPYAPPRDFAAYRSRVKFSRSADAPAYQQGQNQLYNELNLGRREEYDVLDKRRGRDPEMGGKPRRKNPQEGLYNELQKDKMAEAYSEIGMKGERRRGKGHDGLYQGLSTATKDTYDALHMQALPPR",20.2%,15.4%,3.9%,400 pg/mL,443 pg/mL
"CTX181.M10 (other, Masked chimeric antigen receptor on the surface of TRAC-/B2M- human T cells; entry without signal peptide) QGCYIGLRMVPCFHMGSSGGSGGSGGSGGGPLGLAGGSSGQVQLVESGGGVVQPGRSLRLSCAASGFTFSSYGMHWVRQAPGKGLEWVAVIWDDGSNKYYVDSVKGRFTISRDNSKNTLYLQMNSLRAEDTAVYYCARDDYYGSGSFNSYYGTDVWGQGTTVTVSSGGGGSGGGGSGGGGSEIVLTQSPATLSLSPGERATLSCRASQSVSIYLAWYQQKPGQAPRLLIYDASNRATGIPARFSGSGSGTDFTLTISSLEPEDFAVYYCQQRSNWPPFTFGPGTKVDIKSAAAFVPVFLPAKPTTTPAPRPPTPAPTIASQPLSLRPEACRPAAGGAVHTRGLDFACDIYIWAPLAGTCGVLLLSLVITLYCNHRNRSKRSRLLHSDYMNMTPRRPGPTRKHYQPYAPPRDFAAYRSRVKFSRSADAPAYQQGQNQLYNELNLGRREEYDVLDKRRGRDPEMGGKPRRKNPQEGLYNELQKDKMAEAYSEIGMKGERRRGKGHDGLYQGLSTATKDTYDALHMQALPPR",28%,32.7%,25.8%,2110 pg/mL,1880 pg/mL
"CTX181.M11 (other, Masked chimeric antigen receptor on the surface of TRAC-/B2M- human T cells; entry without signal peptide) QGCTMPSHAVASFLCGSSGGSGGSGGSGGGPLGLAGGSSGQVQLVESGGGVVQPGRSLRLSCAASGFTFSSYGMHWVRQAPGKGLEWVAVIWDDGSNKYYVDSVKGRFTISRDNSKNTLYLQMNSLRAEDTAVYYCARDDYYGSGSFNSYYGTDVWGQGTTVTVSSGGGGSGGGGSGGGGSEIVLTQSPATLSLSPGERATLSCRASQSVSIYLAWYQQKPGQAPRLLIYDASNRATGIPARFSGSGSGTDFTLTISSLEPEDFAVYYCQQRSNWPPFTFGPGTKVDIKSAAAFVPVFLPAKPTTTPAPRPPTPAPTIASQPLSLRPEACRPAAGGAVHTRGLDFACDIYIWAPLAGTCGVLLLSLVITLYCNHRNRSKRSRLLHSDYMNMTPRRPGPTRKHYQPYAPPRDFAAYRSRVKFSRSADAPAYQQGQNQLYNELNLGRREEYDVLDKRRGRDPEMGGKPRRKNPQEGLYNELQKDKMAEAYSEIGMKGERRRGKGHDGLYQGLSTATKDTYDALHMQALPPR",30.3%,20.1%,12.7%,884 pg/mL,887 pg/mL
"CTX181.M13 (other, Masked chimeric antigen receptor on the surface of TRAC-/B2M- human T cells; entry without signal peptide) QGCTYPPRFHMHWLCGSSGGSGGSGGSGGGPLGLAGGSSGQVQLVESGGGVVQPGRSLRLSCAASGFTFSSYGMHWVRQAPGKGLEWVAVIWDDGSNKYYVDSVKGRFTISRDNSKNTLYLQMNSLRAEDTAVYYCARDDYYGSGSFNSYYGTDVWGQGTTVTVSSGGGGSGGGGSGGGGSEIVLTQSPATLSLSPGERATLSCRASQSVSIYLAWYQQKPGQAPRLLIYDASNRATGIPARFSGSGSGTDFTLTISSLEPEDFAVYYCQQRSNWPPFTFGPGTKVDIKSAAAFVPVFLPAKPTTTPAPRPPTPAPTIASQPLSLRPEACRPAAGGAVHTRGLDFACDIYIWAPLAGTCGVLLLSLVITLYCNHRNRSKRSRLLHSDYMNMTPRRPGPTRKHYQPYAPPRDFAAYRSRVKFSRSADAPAYQQGQNQLYNELNLGRREEYDVLDKRRGRDPEMGGKPRRKNPQEGLYNELQKDKMAEAYSEIGMKGERRRGKGHDGLYQGLSTATKDTYDALHMQALPPR",37.5%,68.6%,41.3%,4860 pg/mL,6170 pg/mL
